# Laboratory results from PMC7906036 (Nature, 2020).
# Read-outs that look alike come from different tables or passages of the source.
# T1: Rhodamine green-hepcidin (Homo sapiens, not fully specified; rhodamine green at position 17)
# T1 chain: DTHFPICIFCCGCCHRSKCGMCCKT
# Key:
# [1] = molecular target: human ferroportin (wild type) (human) (UniProt Q9NP59); assay: fluorescence polarisation
# [2] = molecular target: human ferroportin (wild type) (human) (UniProt Q9NP59); assay: fluorescence polarisation; remark: listed apart in the source
# [3] = molecular target: human ferroportin (wild type) (human) (UniProt Q9NP59); assay: fluorescence polarisation; remark: listed apart in the source
# [4] = molecular target: T1, Rhodamine green-hepcidin; assay: fluorescence polarisation
# [5] = molecular target: human ferroportin (wild type) (human, UniProt Q9NP59); assay: SEC
# Chain of human ferroportin (wild type) (Q9NP59 whole entry): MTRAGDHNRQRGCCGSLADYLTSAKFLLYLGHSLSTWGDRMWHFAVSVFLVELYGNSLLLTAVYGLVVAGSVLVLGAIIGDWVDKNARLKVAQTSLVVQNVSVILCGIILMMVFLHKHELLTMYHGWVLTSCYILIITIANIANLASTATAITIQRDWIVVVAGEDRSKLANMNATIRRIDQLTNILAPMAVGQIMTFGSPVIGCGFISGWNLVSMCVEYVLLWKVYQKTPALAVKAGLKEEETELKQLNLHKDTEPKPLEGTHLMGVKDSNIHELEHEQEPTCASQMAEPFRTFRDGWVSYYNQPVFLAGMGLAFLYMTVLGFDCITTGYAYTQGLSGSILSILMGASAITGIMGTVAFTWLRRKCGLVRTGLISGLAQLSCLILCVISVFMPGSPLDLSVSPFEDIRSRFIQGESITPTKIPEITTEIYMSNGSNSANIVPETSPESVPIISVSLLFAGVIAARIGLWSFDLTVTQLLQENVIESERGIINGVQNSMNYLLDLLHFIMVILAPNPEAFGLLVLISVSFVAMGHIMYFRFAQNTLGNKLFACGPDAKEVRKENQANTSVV
# Chain of human ferroportin (wild type) (human) (Q9NP59 whole entry): as above
Molecule,Kd [1],Kd [2],Kd [3],binding result [4],binding result [5]
Rhodamine green-hepcidin (peptide),2.5 nM,210 nM,7.7 nM,,
"Fab45D8 (Fab, V domains shown) VH: EVQLQESGPGLAKPSQTLSLTCSVTGSSITSDYWNWIRKFPGNKLEYMGYISYSGSTYYNPSLKSQISITRDTSKNHYYLQLNSVTTEDTATYYCARQGLRNWYFDVWGTGTTVTVSS VL: DIVLTQSPASLPVSLGQRATISCRASKSVSASAYSYMHWYQQKPGQPPKPLIYLASNLESGVPARFSGSGSGTDFTLNIHPVEEEDAATYYCQHNRELPYTFGGGTKLEIK",,,,no binding,binds
